In assay [1] the target is T1, USP7-CTD (535-1102) (human, UniProt Q93009 535-1102).
T1 construct: USP7, human, residues 535-1102 (spacer helix and five Ubl domains); Cloned in p15TV-L; also called WT USP7-CTD; C-terminal domain; source: E. coli BL21(DE3)mgk, purified (nickel-NTA, SEC)
The assay can be described thus: fluorescence polarisation; competition: fixed USP7-CTD (8 μM), 40 nM FITC-UHRF1, increasing unlabeled ICP0 peptide (0 to 2500 μM). The settings on record: both partners purified.

For assay [2], the target named is T1, USP7-CTD (535-1102). The assay can be described thus: fluorescence polarisation; USP7 proteins titrated (0 to 200 μM) into 40 nM N-terminally FITC-labeled peptide; 0.01% Triton X-100, 150 mM NaCl, 20 mM Tris pH 7.5. Conditions: both partners purified.
For assay [3], the target named is T1, USP7-CTD (535-1102). The assay can be described thus: pull-down; GST pull-down: 250 μg USP7 protein with 250 μg GST fusion in 50 mM Tris pH 8.0, 100 mM NaCl, 5 mM DTT, 5% glycerol, on glutathione-sepharose overnight at 4°C; eluted with 30 mM reduced glutathione; Coomassie stained gel. The settings on record: both partners purified.
In assay [4] the target is T2, myc-tagged USP7 D762R/D764R (human, UniProt Q93009 1-1102, D762R/D764R | D762R/D764R).
T2 construct: USP7, human, full length with D762R and D764R, sub-cloned into pCANmycUSP7; also called MRGR; D762R/D764R (MRGR) USP7; source: 293T cells, transfected (pCANmycUSP7), in lysate
T2 sequence (Q93009 whole entry D762R/D764R): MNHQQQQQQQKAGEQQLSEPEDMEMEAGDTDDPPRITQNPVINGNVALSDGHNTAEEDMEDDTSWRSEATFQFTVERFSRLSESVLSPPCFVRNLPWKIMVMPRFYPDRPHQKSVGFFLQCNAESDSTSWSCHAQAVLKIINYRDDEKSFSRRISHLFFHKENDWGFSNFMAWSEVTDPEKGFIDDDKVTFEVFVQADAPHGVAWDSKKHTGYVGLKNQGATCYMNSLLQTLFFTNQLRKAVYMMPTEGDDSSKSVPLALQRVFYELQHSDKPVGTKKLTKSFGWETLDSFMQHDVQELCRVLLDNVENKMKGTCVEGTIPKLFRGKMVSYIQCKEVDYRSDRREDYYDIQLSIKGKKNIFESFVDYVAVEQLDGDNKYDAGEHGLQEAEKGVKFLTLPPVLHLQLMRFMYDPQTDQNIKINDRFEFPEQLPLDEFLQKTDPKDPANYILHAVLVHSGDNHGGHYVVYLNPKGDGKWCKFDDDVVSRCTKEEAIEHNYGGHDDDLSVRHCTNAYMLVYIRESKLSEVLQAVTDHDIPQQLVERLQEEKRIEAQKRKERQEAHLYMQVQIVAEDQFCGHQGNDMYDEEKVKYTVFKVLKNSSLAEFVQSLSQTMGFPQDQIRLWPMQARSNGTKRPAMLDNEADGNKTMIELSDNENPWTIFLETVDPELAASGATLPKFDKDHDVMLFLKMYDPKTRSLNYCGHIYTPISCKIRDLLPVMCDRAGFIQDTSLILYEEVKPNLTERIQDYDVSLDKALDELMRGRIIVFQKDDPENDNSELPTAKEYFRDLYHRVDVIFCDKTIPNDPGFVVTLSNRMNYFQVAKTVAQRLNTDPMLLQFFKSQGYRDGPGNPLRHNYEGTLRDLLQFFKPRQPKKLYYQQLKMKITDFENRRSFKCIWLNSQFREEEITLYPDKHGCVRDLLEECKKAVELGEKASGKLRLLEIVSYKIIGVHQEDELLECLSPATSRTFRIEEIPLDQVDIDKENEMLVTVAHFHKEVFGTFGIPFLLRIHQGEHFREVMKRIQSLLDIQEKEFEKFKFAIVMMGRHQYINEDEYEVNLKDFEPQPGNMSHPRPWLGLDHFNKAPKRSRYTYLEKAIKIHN
The assay can be described thus: co-IP; 293T cells transfected with myc-USP7 (with or without ICP0); RIPA lysate, anti-myc antibody and protein A/G agarose; Western blot for ICP0, GMPS or UHRF1. The settings on record: partners not purified.

Assay [5] concerns the target T3, full length USP7 (human, UniProt Q93009 1-1102).
T3 construct: Ubiquitin specific protease 7 (USP7, HAUSP), human, full length; also called FL-USP7; USP7-FL; source: Sf9 cells, purified (SEC)
The assay can be described thus: pull-down; GST pull-down: 250 μg USP7 protein with 250 μg GST fusion in 50 mM Tris pH 8.0, 100 mM NaCl, 5 mM DTT, 5% glycerol, on glutathione-sepharose overnight at 4°C; eluted with 30 mM reduced glutathione; Coomassie stained gel. Conditions: both partners purified.

Assay [6] addresses T3, full length USP7. The assay can be described thus: fluorescence polarisation; USP7 proteins titrated (0 to 200 μM) into 40 nM N-terminally FITC-labeled peptide; 0.01% Triton X-100, 150 mM NaCl, 20 mM Tris pH 7.5. Conditions: both partners purified.
Another assay deals with T4, USP7 Ubl123 D764A (human, UniProt Q93009 535-889, D764A).
T4 construct: USP7, human, residues 535-889 with D764A; Synthesized (Genscript), in pET15b; also called Ubl123 mutant D764A; source: E. coli BL21(DE3)mgk, purified (nickel-NTA, SEC)
T4 sequence (Q93009 535-889 D764A): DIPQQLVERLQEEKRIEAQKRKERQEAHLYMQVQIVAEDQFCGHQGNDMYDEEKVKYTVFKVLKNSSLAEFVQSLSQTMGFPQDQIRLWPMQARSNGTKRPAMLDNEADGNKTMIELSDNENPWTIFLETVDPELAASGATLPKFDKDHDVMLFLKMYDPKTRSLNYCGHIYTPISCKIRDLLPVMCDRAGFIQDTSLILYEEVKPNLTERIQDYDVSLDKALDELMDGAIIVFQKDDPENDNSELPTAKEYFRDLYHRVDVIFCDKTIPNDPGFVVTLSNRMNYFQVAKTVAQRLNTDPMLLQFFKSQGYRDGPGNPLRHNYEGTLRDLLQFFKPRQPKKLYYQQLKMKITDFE
The assay is described as above. The settings on record: both partners purified.

In a further assay the target is T5, USP7 Ubl123 D762A/D764A (human, UniProt Q93009 535-889, D762A/D764A | D762A/D764A).
T5 construct: USP7, human, residues 535-889 with D762A and D764A; Synthesized (Genscript), in pET15b; also called Ubl123 mutant D762A/D764A; source: E. coli BL21(DE3)mgk, purified (nickel-NTA, SEC)
T5 sequence (Q93009 535-889 D762A/D764A): as the sequence (Q93009 535-889 D764A) above, with D228A counted along it
The description is as above. The settings on record: both partners purified.

Assay [7] addresses T6, USP7 Ubl123 (535-889) (human, UniProt Q93009 535-889).
T6 construct: USP7, human, residues 535-889 (spacer helix 535-560 and Ubl1-3); Cloned in p15TV-L; also called native Ubl123; source: E. coli BL21(DE3)mgk, purified (nickel-NTA, SEC)
Described as above. Conditions: both partners purified.

The target in a further assay is T7, USP7 Ubl123 E759A (human, UniProt Q93009 535-889, E759A).
T7 construct: USP7, human, residues 535-889 with E759A; Synthesized (Genscript), in pET15b; also called Ubl123 mutant E759A; source: E. coli BL21(DE3)mgk, purified (nickel-NTA, SEC)
T7 sequence (Q93009 535-889 E759A): as the sequence (Q93009 535-889 D764A) above, with E225A, A230D counted along it
The assay is described as above. The settings on record: both partners purified.

For the next assay, the target named is T8, USP7 Ubl123 D762A (human, UniProt Q93009 535-889, D762A).
T8 construct: USP7, human, residues 535-889 with D762A; Synthesized (Genscript), in pET15b; also called Ubl123 mutant D762A; source: E. coli BL21(DE3)mgk, purified (nickel-NTA, SEC)
T8 sequence (Q93009 535-889 D762A): as the sequence (Q93009 535-889 D764A) above, with D228A, A230D counted along it
The assay is described as above. The settings on record: both partners purified.

In the next assay the target is T9, USP7 Ubl12 (535-776) (human, UniProt Q93009 535-776).
T9 construct: USP7, human, residues 535-776; Cloned in p15TV-L; source: E. coli BL21(DE3)mgk, purified (nickel-NTA, SEC)
T9 sequence (Q93009 535-776): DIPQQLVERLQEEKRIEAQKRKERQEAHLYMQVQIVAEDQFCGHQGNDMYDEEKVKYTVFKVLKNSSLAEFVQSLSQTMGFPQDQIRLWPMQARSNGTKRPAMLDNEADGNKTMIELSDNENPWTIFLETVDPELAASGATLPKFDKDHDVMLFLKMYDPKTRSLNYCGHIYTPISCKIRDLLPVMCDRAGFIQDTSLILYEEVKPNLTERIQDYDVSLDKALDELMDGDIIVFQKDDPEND
The assay can be described thus: pull-down; GST pull-down: 250 μg USP7 protein with 250 μg GST fusion in 50 mM Tris pH 8.0, 100 mM NaCl, 5 mM DTT, 5% glycerol, on glutathione-sepharose overnight at 4°C; eluted with 30 mM reduced glutathione; Coomassie stained gel. Conditions: both partners purified.

Assay [8] concerns the target T6, USP7 Ubl123 (535-889). The description is as above. The settings on record: both partners purified.

Primed or numbered codes have the meaning given here. No end group written: not given here. FITC′ = fluorescein isothiocyanate label; GST = glutathione S-transferase fusion

The record followed here is article PMC4457826, “Crystal Structure of USP7 Ubiquitin-like Domains with an ICP0 Peptide Reveals a Novel Mechanism Used by Viral and Cellular Proteins to Target USP7” (PLoS Pathogens, 2015).

T3 sequence (Q93009 whole entry): as the sequence (Q93009 whole entry D762R/D764R) above, with R762D, R764D counted along it
T1 sequence (Q93009 535-1102): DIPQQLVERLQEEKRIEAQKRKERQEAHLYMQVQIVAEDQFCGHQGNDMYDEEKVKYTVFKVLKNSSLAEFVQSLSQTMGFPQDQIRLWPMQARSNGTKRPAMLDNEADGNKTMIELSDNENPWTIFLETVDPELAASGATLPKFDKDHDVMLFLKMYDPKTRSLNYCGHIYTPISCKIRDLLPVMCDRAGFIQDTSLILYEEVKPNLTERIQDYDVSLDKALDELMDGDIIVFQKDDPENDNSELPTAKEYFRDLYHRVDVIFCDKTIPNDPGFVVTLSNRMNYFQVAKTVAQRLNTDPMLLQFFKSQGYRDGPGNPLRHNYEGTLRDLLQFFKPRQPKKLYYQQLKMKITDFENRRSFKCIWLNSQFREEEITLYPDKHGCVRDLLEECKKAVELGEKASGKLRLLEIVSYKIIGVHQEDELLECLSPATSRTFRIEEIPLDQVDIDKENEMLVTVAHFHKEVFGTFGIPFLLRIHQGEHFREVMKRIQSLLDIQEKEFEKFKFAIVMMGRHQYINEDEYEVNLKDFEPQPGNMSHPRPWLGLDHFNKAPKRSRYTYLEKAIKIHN
T6 sequence (Q93009 535-889): as the sequence (Q93009 535-889 D764A) above, with A230D counted along it

B1: unlabeled ICP0 peptide (peptide)
chain: GPRKCARKTRH
modifications: not fully specified
B1 displayed a Ki with USP7-CTD (535-1102) [1] of 20.6 µM.

B2: FITC-GMPS peptide (peptide)
peptide: {FITC′}-DRTPRKRISKTLN
notes: GMP synthase (GMPS), residues 316-328 ('this GMPS peptide'); also called N-terminal FITC containing GMPS peptide; source: synthetic peptide (CanPeptide)
As to B2, the Kd with USP7-CTD (535-1102) [2] is 32 µM.

B3: FITC-UHRF1 peptide (peptide)
chain: {FITC′}-TGKGKWKR
Turning to B3, in the assay with USP7-CTD (535-1102) [2], the Kd was 5.6 µM.

B4: GST-GMPS peptide (316-328) (peptide)
chain: {GST}-DRTPRKRISKTLN
notes: GMP synthase (GMPS), residues 316-328; also called WT GST-GMPS; source: E. coli BL21(DE3), purified (glutathione-sepharose)
For B4, the binding result in the assay with USP7-CTD (535-1102) [3] was “binds”.

B5: GST-ICP0 594-775 (domain or fragment)
chain: AVGALGGRQEETSLGPRAASGPRGPRKCARKTRHAETSGAVPAGGLTRYLPISGVSSVVALSPYVNKTITGDCLPILDMETGNIGAYVVLVDQTGNMATRLRAAVPGWSRRTLLPETAGNHVMPPEYPTAPASEWNSLWMTPVGNMLFDQGTLVGALDFRSLRSRHPWSGEQGASTRDEGKQ
notes: ICP0 of herpes simplex virus 1, residues 594-775; also called longer ICP0 peptide; source: E. coli BL21(DE3), purified (glutathione-sepharose)
For B5, in the assay with USP7-CTD (535-1102) [3], the binding result is “binds”.

B6: endogenous GMPS (natural protein)
chain: not shown
notes: GMP synthase (GMPS), endogenous in 293T cells; also called GMP synthase; source: endogenous, 293T lysate
Turning to B6, in assay [4], the “percent binding relative to recovery with WT USP7” value came to 35%.

B7: GST-ICP0 619-633 (peptide)
chain: RKCARKTRHAETSGA
notes: ICP0 of herpes simplex virus 1, residues 619-633; also called ICP0 peptide 619–633; source: E. coli BL21(DE3), purified (glutathione-sepharose)
With B7, the binding result in the assay with full length USP7 [5] and with USP7-CTD (535-1102) [3] was “binds” throughout.

B8: FITC-labeled ICP0 peptide (peptide)
chain: {FITC′}-GPRKCARKTRH
For the molecule B8, the Kd with full length USP7 [6] is 3.2 µM; with USP7 Ubl123 D764A, over 100 µM; with USP7 Ubl123 D762A/D764A, over 100 µM; with USP7 Ubl123 (535-889) [7], 1.6 µM; with USP7 Ubl123 E759A, over 100 µM; with USP7 Ubl123 D762A, over 100 µM.

B9: endogenous UHRF1 (natural protein, human (endogenous in 293T), UniProt Q96T88 1-793, looked up)
chain: MWIQVRTMDGRQTHTVDSLSRLTKVEELRRKIQELFHVEPGLQRLFYRGKQMEDGHTLFDYEVRLNDTIQLLVRQSLVLPHSTKERDSELSDTDSGCCLGQSESDKSSTHGEAAAETDSRPADEDMWDETELGLYKVNEYVDARDTNMGAWFEAQVVRVTRKAPSRDEPCSSTSRPALEEDVIYHVKYDDYPENGVVQMNSRDVRARARTIIKWQDLEVGQVVMLNYNPDNPKERGFWYDAEISRKRETRTARELYANVVLGDDSLNDCRIIFVDEVFKIERPGEGSPMVDNPMRRKSGPSCKHCKDDVNRLCRVCACHLCGGRQDPDKQLMCDECDMAFHIYCLDPPLSSVPSEDEWYCPECRNDASEVVLAGERLRESKKKAKMASATSSSQRDWGKGMACVGRTKECTIVPSNHYGPIPGIPVGTMWRFRVQVSESGVHRPHVAGIHGRSNDGAYSLVLAGGYEDDVDHGNFFTYTGSGGRDLSGNKRTAEQSCDQKLTNTNRALALNCFAPINDQEGAEAKDWRSGKPVRVVRNVKGGKNSKYAPAEGNRYDGIYKVVKYWPEKGKSGFLVWRYLLRRDDDEPGPWTKEGKDRIKKLGLTMQYPEGYLEALANREREKENSKREEEEQQEGGFASPRTGKGKWKRKSAGGGPSRAGSPRRTSKKTKVEPYSLTAQQSSLIREDKSNAKLWNEVLASLKDRPASGSPFQLFLSKVEETFQCICCQELVFRPITTVCQHNVCKDCLDRSFRAQVFSCPACRYDLGRSYAMQVNQPLQTVLNQLFPGYGNGR
notes: UHRF1 (NP95), endogenous in 293T cells; also called NP95; source: endogenous, 293T lysate
Turning to B9, the “percent binding relative to recovery with WT USP7” value in [4] was 21%.

B10: GST-ICP0 615-629 (peptide)
chain: PRGPRKCARKTRHAE
notes: ICP0 of herpes simplex virus 1, residues 615-629; also called ICP0 peptide 615–629; GST-ICP0 peptide; source: E. coli BL21(DE3), purified (glutathione-sepharose)
Regarding B10, the binding result with full length USP7 [5], with USP7-CTD (535-1102) [3], with USP7 Ubl12 (535-776) and with USP7 Ubl123 (535-889) [8] was “binds” in each case.

B11: ICP0 (expressed in 293T cells) (natural protein)
chain: MEPRPGASTRRPEGRPQREPAPDVWVFPCDRDLPDSSDSEAETEVGGRGDADHHDDDSASEADSTDTELFETGLLGPQGVDGGAVSGGSPPREEDPGSCGGAPPREDGGSDEGDVCAVCTDEIAPHLRCDTFPCMHRFCIPCMKTWMQLRNTCPLCNAKLVYLIVGVTPSGSFSTIPIVNDPQTRMEAEEAVRAGTAVDFIWTGNQRFAPRYLTLGGHTVRALSPTHPEPTTDEDDDDLDDADYVPPAPRRTPRAPPRRGAAAPPVTGGASHAAPQPAAARTAPPSAPIGPHGSSNTNTTTNSSGGGGSRQSRAAAPRGASGPSGGVGVGVGVVEAEAGRPRGRTGPLVNRPAPLANNRDPIVISDSPPASPHRPPAAPMPGSAPRPGPPASAAASGPARPRAAVAPCVRAPPPGPGPRAPAPGAEPAARPADARRVPQSHSSLAQAANQEQSLCRARATVARGSGGPGVEGGHGPSRGAAPSGAAPLPSAASVEQEAAVRPRKRRGSGQENPSPQSTRPPLAPAGAKRAATHPPSDSGPGGRGQGGPGTPLTSSAASASSSSASSSSAPTPAGAASSAAGAASSSASASSGGAVGALGGRQEETSLGPRAASGPRGPRKCARKTRHAETSGAVPAGGLTRYLPISGVSSVVALSPYVNKTITGDCLPILDMETGNIGAYVVLVDQTGNMATRLRAAVPGWSRRTLLPETAGNHVMPPEYPTAPASEWNSLWMTPVGNMLFDQGTLVGALDFRSLRSRHPWSGEQGASTRDEGKQ
notes: also called pCI-110 ICP0; source: 293T cells, transfected (pCI-110 ICP0), in lysate
With B11, the “fold decrease of recovery against WT USP7” value in assay [4] was found to be 2 fold.

B12: GST-ICP0 611-625 (peptide)
chain: AASGPRGPRKCARKT
notes: ICP0 of herpes simplex virus 1, residues 611-625; also called ICP0 region 611–625; source: E. coli BL21(DE3), purified (glutathione-sepharose)
Take B12: the binding result with full length USP7 [5] and with USP7-CTD (535-1102) [3] was “binds” each time.
